Where two headings read alike, the source gives them in different places.
T1: human alpha2-Antiplasmin (human, UniProt P08697 40-491)
T1 sequence: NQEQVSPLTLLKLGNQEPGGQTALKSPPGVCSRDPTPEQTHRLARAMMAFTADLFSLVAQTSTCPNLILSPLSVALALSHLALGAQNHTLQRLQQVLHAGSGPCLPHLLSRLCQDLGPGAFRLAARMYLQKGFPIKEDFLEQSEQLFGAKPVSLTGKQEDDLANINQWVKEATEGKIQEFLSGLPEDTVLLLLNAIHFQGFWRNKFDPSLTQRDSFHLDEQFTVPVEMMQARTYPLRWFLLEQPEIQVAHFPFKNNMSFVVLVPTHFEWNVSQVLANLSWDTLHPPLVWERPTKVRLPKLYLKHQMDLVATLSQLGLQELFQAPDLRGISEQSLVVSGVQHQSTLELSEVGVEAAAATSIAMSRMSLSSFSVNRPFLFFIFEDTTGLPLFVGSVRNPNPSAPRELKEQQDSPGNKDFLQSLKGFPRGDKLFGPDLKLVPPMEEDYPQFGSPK

T2: rabbit alpha2-Antiplasmin (rabbit (Oryctolagus cuniculus))
T2 construct: Made in house in HEK293 cells, purified by Ni-IMAC and SEC (a His tag is implied but not described); also called rabbit A2AP; Oryctolagus cuniculus A2AP
T2 chain: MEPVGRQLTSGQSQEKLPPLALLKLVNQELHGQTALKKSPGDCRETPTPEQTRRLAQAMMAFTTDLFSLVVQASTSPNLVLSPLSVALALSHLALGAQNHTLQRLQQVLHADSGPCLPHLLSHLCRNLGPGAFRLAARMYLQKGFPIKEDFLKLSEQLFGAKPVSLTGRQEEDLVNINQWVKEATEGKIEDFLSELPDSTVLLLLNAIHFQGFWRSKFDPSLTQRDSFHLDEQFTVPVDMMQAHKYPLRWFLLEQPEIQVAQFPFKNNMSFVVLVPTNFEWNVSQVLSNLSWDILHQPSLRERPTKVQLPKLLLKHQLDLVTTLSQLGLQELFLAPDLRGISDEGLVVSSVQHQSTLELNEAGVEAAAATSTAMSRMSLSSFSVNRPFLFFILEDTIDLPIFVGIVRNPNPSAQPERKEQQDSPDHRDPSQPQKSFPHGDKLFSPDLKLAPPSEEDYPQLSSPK

T3: cynomolgus alpha2-Antiplasmin (cynomolgus (Macaca fascicularis), UniProt P08697 28-491 (human entry))
T3 construct: Made in house in the same way as the rabbit protein; also called cynomolgus A2AP; Macaca fascicularis A2AP
T3 chain: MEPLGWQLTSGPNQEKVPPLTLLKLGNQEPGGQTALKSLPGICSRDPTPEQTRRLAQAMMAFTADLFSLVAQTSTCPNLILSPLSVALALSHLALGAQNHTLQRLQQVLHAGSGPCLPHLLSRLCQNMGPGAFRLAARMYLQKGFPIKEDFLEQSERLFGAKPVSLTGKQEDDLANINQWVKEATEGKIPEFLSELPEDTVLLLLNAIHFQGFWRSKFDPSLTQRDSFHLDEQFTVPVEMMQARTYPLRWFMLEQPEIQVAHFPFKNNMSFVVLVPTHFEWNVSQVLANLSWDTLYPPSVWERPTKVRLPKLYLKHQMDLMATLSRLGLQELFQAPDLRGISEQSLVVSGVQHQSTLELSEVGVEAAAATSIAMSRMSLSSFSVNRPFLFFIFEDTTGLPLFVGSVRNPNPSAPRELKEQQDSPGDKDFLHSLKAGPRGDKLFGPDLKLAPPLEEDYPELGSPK


Legend:
human alpha2-Antiplasmin [1] = target: T1, human alpha2-Antiplasmin; assay: cell-based or functional assay
human Plasmin = human Plasmin (human, UniProt P00747 97-580; P00747 581-810, limits assumed); assay: cell-based or functional assay
human alpha2-Antiplasmin [2] = target: T1, human alpha2-Antiplasmin; assay: ELISA, coated antigen, 1st exp.
Experimental: (§1) A standard ELISA format was used for analyzing the binding affinity of Fabs of this invention to human and rabbit alpha-2-Antiplasmin, respectively. Antigens were coated to black 384 well Maxisorp microtiter plates (Nunc; catalogue number 460518), diluted to a concentration of 1 μg/ml in 1× Coating Buffer (Candor Bioscience; catalogue number 121125). Plates were incubated overnight at 4° C. After overnight incubation, plates were washed 2× with 50 μl/well using PBS+0.05% Tween 20. Following this, 50 μl/well of blocking buffer (Smart Block; Candor Bioscience; catalogue number 113500) was added and the plates were incubated for 1 hour at room temperature. Afterwards, plates were washed for 3× using […] PBS+0.05% Tween 20 buffer. Fabs of this invention were added at different concentrations in a final volume of 30 μl/well. Plates were incubated for 1 hour at room temperature. Following this incubation step, plates were washed for 3× using 50 μl/well of a PBS+0.05% Tween 20 buffer. For the detection of bound Fabs and full-length antibodies, the anti-Human Lambda Light Chains (Bound and Free)—Peroxidase antibody (Sigma; catalogue number A5175) was diluted by the factor of 1:10.000 in 10% Blocking Buffer. 30 μl/well of this diluted detection antibody was added and plates are incubated for 1 hour at room temperature. Following this incubation step, plates were washed for 3× using 50 μl/well of a PBS+0.05% Tween 20 buffer. As substrate, a mixture of 30 μl/well of 1:1000 diluted Amplex red (Invitrogen; catalogue number 12222; stock solution 10 mM in DMSO) and 1:10.000 of Hydrogen peroxide (Merck; catalogue number 107209; 30% stock solution) was added and the plates incubated for minutes in the dark.
(§2) For measurement, the Infinite f500 reader (Tecan) was used. Measurement mode: Fluorescence; Top reading; Ex 535 nm; Em 590 nm.
(§3) According to the methods described in Example 3 and Example 4, antibodies TPP-14323, TPP-14318, TPP-14314, TPP-14313, TPP-14308, TPP-14305, TPP-14303, TPP-14298, and TPP-14293 were tested for their ability to bind to and to block the activity of human alpha2-Antiplasmin in a dose-dependent manner. For each antibody, one dose response curve from two to three independent experiments performed in quadruplicate is shown as example in FIG. 7.1 to FIG. 7.18. (see Table 3.3)

human alpha2-Antiplasmin [3] = target: T1, human alpha2-Antiplasmin; assay: ELISA, coated antigen, 2nd exp.
Experimental: as §1, §2, §3

human alpha2-Antiplasmin [4] = target: T1, human alpha2-Antiplasmin; assay: ELISA, coated antigen, 3rd exp.
Experimental: as §1, §2, §3

human alpha2-Antiplasmin [5] = target: T1, human alpha2-Antiplasmin; assay: cell-based or functional assay; remark: listed apart in the source
human alpha2-Antiplasmin [6] = target: T1, human alpha2-Antiplasmin; assay: cell-based or functional assay; remark: listed apart in the source
human alpha2-Antiplasmin [7] = target: T1, human alpha2-Antiplasmin; assay: ELISA, coated antigen, 1st exp.; 1st exp.
Experimental: as §1, with “30 μl/well of this diluted detection antibody was added and plates are incubated for 1 hour at room temperature. Following this incubation step, plates were washed for 3× using 50 μl/well of a PBS+0.05% Tween 20 buffer. As substrate, a mixture of 30 μl/well of 1:1000 diluted Amplex red (Invitrogen; catalogue number 12222; stock solution 10 mM in DMSO) and 1:10.000 of Hydrogen peroxide (Merck; catalogue number 107209; 30% stock solution) was added and the plates incubated for minutes in the dark.” left out
For measurement, the Infinite f500 reader (Tecan) was used. Measurement mode: Fluorescence; Top reading; Ex 535 nm; Em 590 nm. […]

human alpha2-Antiplasmin [8] = target: T1, human alpha2-Antiplasmin; assay: cell-based or functional assay; remark: listed apart in the source
human alpha2-Antiplasmin [9] = target: T1, human alpha2-Antiplasmin; assay: cell-based or functional assay; remark: listed apart in the source
human alpha2-Antiplasmin [10] = target: T1, human alpha2-Antiplasmin; assay: cell-based or functional assay; remark: listed apart in the source
human alpha2-Antiplasmin [11] = target: T1, human alpha2-Antiplasmin; assay: ELISA (Example 3), human alpha2-Antiplasmin coated, RFU
Experimental: as §1, with “30 μl/well of this diluted detection antibody was added and plates are incubated for 1 hour at room temperature. Following this incubation step, plates were washed for 3× using 50 μl/well of a PBS+0.05% Tween 20 buffer. As substrate, a mixture of 30 μl/well of 1:1000 diluted Amplex red (Invitrogen; catalogue number 12222; stock solution 10 mM in DMSO) and 1:10.000 of Hydrogen peroxide (Merck; catalogue number 107209; 30% stock solution) was added and the plates incubated for minutes in the dark.” left out
as §2

human alpha2-Antiplasmin [12] = target: T1, human alpha2-Antiplasmin; assay: ELISA, coated antigen, quantified unpurified antibody, 1st exp.
human alpha2-Antiplasmin [13] = target: T1, human alpha2-Antiplasmin; assay: ELISA, coated antigen, quantified unpurified antibody, 2nd exp.
human alpha2-Antiplasmin [14] = target: T1, human alpha2-Antiplasmin; assay: SPR Biacore T200, antibody captured on protein G chip, A2AP as analyte, 25 C
Experimental: (§4) Binding assays were performed on a Biacore T200 instrument at 25° C. with a protein G sensor chip and assay buffer HBS-EP+. Antibodies were captured to ˜150 RU and analytes were used at concentrations between 1.56 and 200 nM for full kinetics. As interaction partner, alpha2-Antiplasmin from human, cynomolgus and rabbit was used. Regeneration was performed with glycine-HCl pH 1.5. Kinetic parameters were derived by fitting experimental sensorgrams to a 1:1 Langmuir binding model.

[15] = target: T2, rabbit alpha2-Antiplasmin; assay: as above
Experimental: as §4

[16] = target: T3, cynomolgus alpha2-Antiplasmin; assay: as above
Experimental: as §4

human alpha2-Antiplasmin [17] = target: T1, human alpha2-Antiplasmin; assay: cell-based or functional assay; remark: listed apart in the source
human alpha2-Antiplasmin [18] = target: T1, human alpha2-Antiplasmin; assay: ELISA (Example 3), human alpha2-Antiplasmin coated, RFU; remark: listed apart in the source
Experimental: as §1, with “As substrate, a mixture of 30 μl/well of 1:1000 diluted Amplex red (Invitrogen; catalogue number 12222; stock solution 10 mM in DMSO) and 1:10.000 of Hydrogen peroxide (Merck; catalogue number 107209; 30% stock solution) was added and the plates incubated for minutes in the dark.” left out
as §2
According to the method described in Example 3, these 12 antibodies were tested for ability to bind human and rabbit alpha2-Antiplasmin in a dose-dependent manner. Data generated were analyzed using the GraphPadPrism software. The binding activities of the antibodies were calculated as EC50 values. […]

human alpha2-Antiplasmin [19] = target: T1, human alpha2-Antiplasmin; assay: ELISA, coated antigen, quantified unpurified antibody, 3rd exp.
Experimental: as §1, §2

Chain of human Plasmin (P00747 97-580 limits assumed, chain 1 of 2): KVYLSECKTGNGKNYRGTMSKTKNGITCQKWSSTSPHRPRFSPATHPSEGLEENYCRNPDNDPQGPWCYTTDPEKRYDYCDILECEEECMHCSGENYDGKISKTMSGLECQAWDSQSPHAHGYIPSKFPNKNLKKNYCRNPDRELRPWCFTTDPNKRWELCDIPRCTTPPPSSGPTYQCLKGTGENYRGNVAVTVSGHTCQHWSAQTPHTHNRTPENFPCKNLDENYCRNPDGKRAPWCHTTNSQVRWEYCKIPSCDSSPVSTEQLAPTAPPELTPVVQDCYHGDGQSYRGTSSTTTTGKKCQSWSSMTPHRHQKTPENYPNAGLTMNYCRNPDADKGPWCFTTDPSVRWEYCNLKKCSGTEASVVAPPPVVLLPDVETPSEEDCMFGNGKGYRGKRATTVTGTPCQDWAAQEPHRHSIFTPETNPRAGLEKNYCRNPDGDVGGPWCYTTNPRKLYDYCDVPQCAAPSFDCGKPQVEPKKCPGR
Chain of human Plasmin (P00747 581-810 limits assumed, chain 2 of 2): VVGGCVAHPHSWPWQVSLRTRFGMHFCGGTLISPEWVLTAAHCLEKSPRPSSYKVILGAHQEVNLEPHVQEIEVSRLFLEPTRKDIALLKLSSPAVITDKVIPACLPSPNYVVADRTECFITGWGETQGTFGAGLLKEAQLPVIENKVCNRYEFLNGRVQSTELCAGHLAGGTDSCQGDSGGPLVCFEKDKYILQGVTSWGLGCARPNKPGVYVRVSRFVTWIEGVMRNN

Binder | function blocking activity [IC50 M], 1st exp. (human alpha2-Antiplasmin [1]) [nM] | function blocking activity [IC50 M], 2nd exp. (human alpha2-Antiplasmin [1]) [nM] | function blocking activity [IC50 M], 3rd exp. (human alpha2-Antiplasmin [1]) [nM] | IC50 [M], inhibition of plasmin proteolytic activity (human Plasmin) [M] | EC50 (human alpha2-Antiplasmin [3]) [nM] | EC50 (human alpha2-Antiplasmin [4]) [nM] | IC50, A2AP function blocking assay (Example 10) (human alpha2-Antiplasmin [8]) [nM] | function blocking activity [IC50 M], 1st exp. (human alpha2-Antiplasmin [9]) [nM] | function blocking activity [IC50 M], 2nd exp. (human alpha2-Antiplasmin [9]) [nM] | function blocking activity [IC50 M], 3rd exp. (human alpha2-Antiplasmin [9]) [nM] | EC50 (human alpha2-Antiplasmin [12]) [nM] | EC50 (human alpha2-Antiplasmin [13]) [nM] | Kd (human alpha2-Antiplasmin [14]) [nM] | Kd [15] [nM] | Kd [16] [nM] | further results
TPP-14293 hIgG1 (antibody, V domains shown) VH: EVQLLESGGGLVQPGGSLRLSCAASGFTFDDYAMSWVRQAPGKGLEWVSAIGTGGGTYYADSVKGRFTISRDNSKNTLYLQMNSLRAEDTAVYYCDREYYDSSGYYHLDYWGQGTLVTVSS VL: QSVLTQPPSASGTPGQRVTISCTGSSSNIGATYDVHWYQQLPGTAPKLLIYSNNQRPSGVPDRFSGSKSGTSASLAISGLRSEDEADYYCAAWDWSLSGWVFGGGTKLTVLG | 46 | 48 | 50 | > 5e-06 | 12 | 12 |  |  |  |  |  |  |  |  |  | EC50 (human alpha2-Antiplasmin [2]): 12 nM; EC50 (read off the curve); function blocking assay (Example 4), RFU of plasmin substrate cleavage (human alpha2-Antiplasmin [5]): ~50 nM
TPP-14298 hIgG1 (antibody, V domains shown) VH: EVQLLESGGGLVQPGGSLRLSCAASGFTFDDYAMSWVRQAPGKGLEWVSAIGTGGGTYYADSVKGRFTISRDNSKNTLYLQMNSLRAEDTAVYYCASEYYDSSGYYHLDYWGQGTLVTVSS VL: QSVLTQPPSASGTPGQRVTISCTGSSSNIGATYDVHWYQQLPGTAPKLLIYSNNQRPSGVPDRFSGSKSGTSASLAISGLRSEDEADYYCAAWDWSLSGWVFGGGTKLTVLG | 31 | 37 | 40 | > 5e-06 | 62 | 58 |  |  |  |  |  |  |  |  |  | EC50 (read off the curve); function blocking assay (Example 4), RFU of plasmin substrate cleavage (human alpha2-Antiplasmin [6]): ~30 nM; EC50 (human alpha2-Antiplasmin [7]): 5.7 nM
TPP-17048 hIgG1 (antibody, V domains shown, Germline variant of TPP-14308) VH: EVQLLESGGGLVQPGGSLRLSCAASGFTFSDYAMSWVRQAPGKGLEWVSAIGTGGSTYYADSVKGRFTISRDNSKNTLYLQMNSLRAEDTAVYYCAREGYDSSGYYHLDYWGQGTLVTVSS VL: QSVLTQPPSASGTPGQRVTISCTGSSSNIGATYDVHWYQQLPGTAPKLLIYSNNQRPSGVPDRFSGSKSGTSASLAISGLRSEDEADYYCAAWDWSLSGWVFGGGTKLTVLG |  |  |  | > 1e-05 |  |  | 1.2 | 0.28 | 0.39 | 0.3 | 0.18 | 0.36 | 7.9 | 9.7 | 5.8 | EC50 (read off the curve); function blocking assay (Example 4), RFU of plasmin substrate cleavage (human alpha2-Antiplasmin [10]): ~0.3 nM; EC50 (read off the curve) (human alpha2-Antiplasmin [11]): ~0.2 nM
TPP-17053 hIgG1 (antibody, V domains shown, Germline variant of TPP-14308) VH: EVQLLESGGGLVQPGGSLRLSCAASGFTFDDYAMSWVRQAPGKGLEWVSAIGSGGSTYYADSVKGRFTISRDNSKNTLYLQMNSLRAEDTAVYYCAREGYDSSGYYHLDYWGQGTLVTVSS VL: QSVLTQPPSASGTPGQRVTISCTGSSSNIGATYDVHWYQQLPGTAPKLLIYSNNQRPSGVPDRFSGSKSGTSASLAISGLRSEDEADYYCAAWDWSLSGWVFGGGTKLTVLG |  |  |  | > 1e-05 |  |  | 0.15 | 0.43 | 0.65 | 0.5 | 0.52 | 0.58 | 11 | 28 | 8.7 | EC50 (read off the curve); function blocking assay (Example 4), RFU of plasmin substrate cleavage (human alpha2-Antiplasmin [17]): ~0.4 nM; EC50 (read off the curve) (human alpha2-Antiplasmin [18]): ~0.5 nM; EC50 (human alpha2-Antiplasmin [19]): 0.63 nM
